Laboratory results from paper PMC13163806.

Legend:
eIF3F = assay: EMSA; conditions: 0.4-2.6 uM protein; fluorescein-12-UTP incorporated about every 20-25 nt; 150 mM NaCl, 20 mM HEPES (pH not stated), 1.5 mM MgCl2, 0.1 mM EDTA, 0.75 mM DTT, 10% glycerol; 2.3 nM labelled RNA; on ice 20 min; 1% native agarose gel
PDCD4 = assay: EMSA; conditions: 0.2-1.2 uM protein; fluorescein-12-UTP incorporated about every 20-25 nt; 150 mM NaCl, 20 mM HEPES (pH not stated), 1.5 mM MgCl2, 0.1 mM EDTA, 0.75 mM DTT, 10% glycerol; 2.3 nM labelled RNA; on ice 20 min; 1% native agarose gel

Bcl-xL IRES RNA was tested, and the Kd (eIF3F) was 800 nM and the Kd (PDCD4) was 400 nM.
